Test [1] deals with IIIB-V3BaL Env (HXB Env with the V3 loop of HIV-1/BaL; on luciferase reporter virions) (HIV-1 (IIIB/BaL chimera)). The test can be described thus: cell-based or functional assay.
The target of test [2] is 8x-V3BaL Env (8x Env with the V3 loop of HIV-1/BaL; on cells or on luciferase reporter virions) (HIV-1 (IIIBx 8x/BaL chimera)). The test can be described thus: cell-based or functional assay.

The results in this text go back to patent publication US20050191621A1.

With “CD4-induced (CD4i) monoclonal antibody 17b”, in test [1], the concentration of antibody required to neutralize 50% of input virus (luciferase reporter virus, GHOST-CCR5 cells) amounted to 14 ng/mL and the concentration of antibody required to neutralize 90% of input virus (luciferase reporter virus, GHOST-CCR5 cells) is 90 ng/mL. For the same substance, in test [2], the concentration of antibody required to neutralize 50% of input virus (luciferase reporter virus, GHOST-CCR5 cells) amounted to 2 ng/mL and the concentration of antibody required to neutralize 90% of input virus (luciferase reporter virus, GHOST-CCR5 cells) was 15 ng/mL.
For the substance “CD4-induced (CD4i) monoclonal antibody 48d”, in test [1], the concentration of antibody required to neutralize 50% of input virus (luciferase reporter virus, GHOST-CCR5 cells) was > 5000 ng/mL and the concentration of antibody required to neutralize 90% of input virus (luciferase reporter virus, GHOST-CCR5 cells) was > 5000 ng/mL. In test [2], the concentration of antibody required to neutralize 50% of input virus (luciferase reporter virus, GHOST-CCR5 cells) was 3 ng/mL; the concentration of antibody required to neutralize 90% of input virus (luciferase reporter virus, GHOST-CCR5 cells) is > 200 ng/mL; the percent neutralization at 200 ng/ml (luciferase reporter virus, GHOST-CCR5 cells) stood at 88%.
